The results in this text go back to US20200339702A1 (ULTRAHUMAN THIRTEEN, published 2020).

Test [1] deals with T1, human ERBB3 on transiently transfected HEK-293 cells (human, UniProt P21860 20-1342).
T1 construct: also called human ERBB3+ HEK-293 cells
Put plainly: flow cytometry, human ERBB3-transfected HEK-293. A digest of the protocol: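 Purified IgGs in IgG1null format were titrated threefold from 500 nM to 0.008 nM on HEK-293 cells transiently transfected with full-length human or rhesus ERBB3, with wild-type HEK-293 as comparison. Binding was detected with FITC anti-human IgG and read as mean fluorescence intensity of 10000 cells by flow cytometry.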

Test [2] deals with T2, human ERBB3 human Fc tagged recombinant protein (human, UniProt P21860 20-643).
T2 construct: also called human ERBB3-Fc; huERBB3
Description: direct binding ELISA on coated human ERBB3-Fc, IgG1null titrated. How it is done: Binding and cross-reactivity of the lead panel to the recombinant proteins was initially assessed by binding ELISA. The human ERBB3 human Fc tagged recombinant protein and the rhesus monkey ERBB3 human Fc tagged recombinant protein were coated to the surface of MaxiSorp™ flat-bottom 96 well plate at 1 μg/ml. The purified IgG samples were titrated in two fold serial dilutions starting from 500 nM to 0.008 nM and allowed to bind to the coated antigens. The Fabs were detected using mouse anti-c-myc antibody followed by donkey anti-mouse IgG conjugated to horseradish peroxidase. The IgGs were detected using the mouse anti-human IgG conjugated to horseradish peroxidase. Binding signals were visualized with 3,3′,5,5′-Tetramethylbenzidine Substrate Solution (TMB) and the absorbance measured at 450 nm.
Background: In an ELISA, binding on a coated surface is turned into a signal by an enzyme label.

Test [3] concerns the target T3, human ERBB3 His tagged, monomeric (human, UniProt P21860 20-643, biotinylated in the Alphascreen assays (sites not given)).
T3 construct: Used unbiotinylated as Biacore analyte and biotinylated in Alphascreen; treated as one molecule; also called human ERBB3-His (Acrobiosystems); biotinylated monomeric human ERBB3
Put plainly: SPR (Biacore), captured IgG, monomeric ERBB3-His analyte. A general note: Surface plasmon resonance follows binding to a sensor surface in real time, without labels.

Test [4] addresses T4, rhesus monkey ERBB3 His tag, monomeric (rhesus monkey (Macaca mulatta), UniProt P21860 20-643 (human entry), limits assumed).
T4 chain: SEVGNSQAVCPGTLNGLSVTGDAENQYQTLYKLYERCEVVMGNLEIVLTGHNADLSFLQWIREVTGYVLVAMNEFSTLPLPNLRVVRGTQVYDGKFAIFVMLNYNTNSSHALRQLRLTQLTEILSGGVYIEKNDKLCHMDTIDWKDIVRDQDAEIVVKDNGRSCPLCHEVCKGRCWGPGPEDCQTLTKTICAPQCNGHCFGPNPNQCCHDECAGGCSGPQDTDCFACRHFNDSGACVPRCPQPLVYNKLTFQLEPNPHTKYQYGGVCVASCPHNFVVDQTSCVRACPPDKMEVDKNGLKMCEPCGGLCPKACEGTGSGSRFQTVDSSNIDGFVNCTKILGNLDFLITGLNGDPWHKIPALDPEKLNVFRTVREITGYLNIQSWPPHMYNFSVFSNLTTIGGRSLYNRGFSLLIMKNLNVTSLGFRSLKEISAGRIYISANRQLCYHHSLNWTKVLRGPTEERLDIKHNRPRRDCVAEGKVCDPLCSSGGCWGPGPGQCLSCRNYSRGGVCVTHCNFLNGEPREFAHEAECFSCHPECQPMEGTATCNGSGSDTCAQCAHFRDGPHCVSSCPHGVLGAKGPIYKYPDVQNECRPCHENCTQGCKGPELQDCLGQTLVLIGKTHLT
Described as above.

Test [5] concerns the target T3, human ERBB3 His tagged, monomeric. Put plainly: Alphascreen competition in solution, competitor h24C05 IgG1null, biotinylated human ERBB3-His. How it is done: The AlphaScreen assay (Perkin Elmer) was performed in a 25 μl final volume in 384-well white microtiter plates (Greiner). The reaction buffer contained 1×PBS pH 7.3 (Oxoid, Cat. nr. BR0014G) and 0.05% (v/v) Tween® 20 (Sigma, Cat. nr. P9416). Purified IgG samples were titrated in three fold serial dilutions starting at 100 nM final concentration and incubated with biotinylated human ERBB3-His (Acrobiosystems) at 1 nM final concentration for 20 minutes at room temperature. The parental IgG and the anti-human IgG1 Acceptor beads at were added and the mix was incubated for 1 hour at room temperature. Followed by addition of the Streptavidin Donor beads and incubation for 30 minutes at room temperature. The emission of light was measured in the EnVision multilabel plate reader (Perkin Elmer) and analysed using the EnVision manager software. Values were reported as Counts Per Second (CPS) and corrected for crosstalk.

Test [6] shares this target. Put plainly: SPR (Biacore). How it is done: Affinity (KD) of purified IgGs was determined via SPR with antigen in-solution on a Biacore® 3000 (GE). A mouse anti-human antibody (CH1 specific) was immobilized on a CM5 Sensor Chip to a level of 2000 RU in acetate buffer at pH 4.5 using amine coupling following the Wizard instructions for two channels. One channel was used for background signal correction. The standard running buffer HBS-EP pH 7.4 was used. Regeneration was performed with a single injection of 10 μl of 10 mM Glycine at pH 1.5 at […]. IgG samples were injected for 2 minutes at 50 nM at 30 μl/min followed by an off-rate of 60 seconds. The monomeric antigen (human ERBB3 His tagged or rhesus monkey ERBB3 His tag) was injected in two fold serial dilutions from 3 nM down to 0.2 nM, for 2 minutes at 30 μl/min followed by an off-rate of 300 seconds. The obtained sensorgrams were analysed using the Biacore® 3000 evaluation (BlAevaluation) software. The KD was calculated by simultaneous fitting of the association and dissociation phases to a 1:1 Langmuir binding model.

B1: 09D12 IgG1null (antibody, V domains shown)
VH: QVQLVESGGGLVKPGGSLRLSCAASGFTFSDYGMSWIRQAPGKGLEWVSTISDGGSYTYYADSVKGRFTISRDNAKNSLYLQMNSLRAEDTAVYYCAREYGDYDGFDYWGQGTLVTVSS
VL: DIQMTQSPSSLSASVGDRVTITCRASQSISSYLNWYQQKPGKAPKLLIYAASSLDSGVPSRFSGSGSGTDFTLTISSLQPEDFATYYCLQYDSTPLTFGGGTKVEIK
notes: Human IgG1null and human Ckappa
As to B1, the “maximum MFI, fold over isotype control background” value in test [1] is greater than 20 fold. For the same molecule, the EC50 (read off the curve) (usually the concentration giving half of the maximal effect) in test [2] was roughly 0.2 nM. In test [3], the Kd – broadly, the constant that tells how readily two partners part at equilibrium – is 0.27 nM; the koff (in general, a measure of how fast the partners let go of each other) worked out at 0.0035 s⁻¹; the kon (as a rule, the second-order rate constant of association) stood at 1.3e+07 M⁻¹ s⁻¹. Besides, in test [4], the Kd came out at 0.69 nM, the koff worked out at 0.0074 s⁻¹ and the kon is 1.1e+07 M⁻¹ s⁻¹.

B2: TTP IgG1null (antibody, V domains shown)
VH: QVQLVESGGGLVKPGGSLRLSCAASGFTFSDYGMSWIRQAPGKGLEWVSTISDSGSTIYYADSVKGRFTISRDNAKNSLYLQMNSLRAEDTAVYYCAREYGDYDGFDYWGQGTLVTVSS
VL: DIQMTQSPSSLSASVGDRVTITCRASQSISSYLNWYQQKPGKAPKLLIYAASSLQSGVPSRFSGSGSGTDFTLTISSLQPEDFATYYCLQYDSTPLTFGGGTKVEIK
notes: Designer clone; Human IgG1null and human Ckappa; also called Total Theoretically Possible clone
As for B2, the “IC50 (read off the curve)” value in test [5] was roughly 5 nM. Further, the “fold loss of KD against clone MH5” value in test [6] is roughly 2 fold. The “maximum MFI, fold over isotype control background” value in test [1] is greater than 20 fold. Besides, in test [2], the “EC50 (read off the curve)” value was roughly 0.3 nM. In test [3], this molecule showed a dissociation constant (Kd) of 1.2 nM, a koff of 0.073 s⁻¹ and a kon of 6.2e+07 M⁻¹ s⁻¹.
